# From patent US20260184782A1 (TWIST BIOSCIENCE, published 2026)
# Substitutions are numbered along the chain they refer to.
# T1: recombinant human TIGIT (human, UniProt Q495A1 22-141, limits assumed)
# T1 construct: recombinant human TIGIT used in Carterra SPR; also called hTIGIT
# T1 sequence (looked up): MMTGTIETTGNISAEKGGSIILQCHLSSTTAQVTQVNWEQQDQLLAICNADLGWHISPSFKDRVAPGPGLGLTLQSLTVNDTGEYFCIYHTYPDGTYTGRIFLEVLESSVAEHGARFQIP
# B1: TIGIT-SC34 (Fc fusion)
# VHH: EVQLVESGGGLVQPGGSLRLSCAASGTTFSPYTMGWFRQAPGKEREFVASINSGSRTNYADSVKGRFTISADNSKNTAYLQMNSLKPEDTAVYYCVRSEIGWGQGTLVTVSS
# notes: VHH-Fc fusion in assay
# B2: TIGIT-SC170 (Fc fusion)
# VHH: EVQLVESGGGLVQPGGSLRLSCAASGHTFSPSWMGWFRQAPGKEREWVASVLRGGYTWYADSVKGRFTISADNSKNTAYLQMNSLKPEDTAVYYCTTELRWELQQPDYWGQGTLVTVSS
# notes: VHH-Fc fusion in assay
# B3: TIGIT-SC19 (Fc fusion)
# VHH: EVQLVESGGGLVQPGGSLRLSCAASGRTYDAMGWFRQAPGKEREWVASVLRGGYTWYADSVKGRFTISADNSKNTAYLQMNSLKPEDTAVYYCARDVDYRFDSWGQGTLVTVSS
# notes: VHH-Fc fusion in assay
# B4: TIGIT-SC107 (Fc fusion)
# VHH: EVQLVESGGGLVQPGGSLRLSCAASGFAFSSDWMGWFRQAPGKEREGVAWIARYDGSTLYADSVKGRFTISADNSKNTAYLQMNSLKPEDTAVYYCAKDLDSSGRFFQHWGQGTLVTVSS
# notes: VHH-Fc fusion in assay
# B5: TIGIT-SC1 (Fc fusion)
# VHH: EVQLVESGGGLVQPGGSLRLSCAASGFTLNDYAMGWFRQAPGKERELVAWIARYDGSTLYADSVKGRFTISADNSKNTAYLQMNSLKPEDTAVYYCARVDWALNAAPFDYWGQGTLVTVSS
# notes: VHH-Fc fusion in assay
# B6: TIGIT-SC78 (Fc fusion)
# VHH: B5 VHH with F27L
# notes: VHH-Fc fusion in assay
# B7: TIGIT-SC39 (Fc fusion)
# VHH: EVQLVESGGGLVQPGGSLRLSCAASGRTVSSHAMGWFRQAPGKEREFVAAITSSGSTYYADSVKGRFTISADNSKNTAYLQMNSLKPEDTAVYYCASSYSSSSGLGDIWGQGTLVTVSS
# notes: VHH-Fc fusion in assay
# B8: TIGIT-SC38 (Fc fusion)
# VHH: EVQLVESGGGLVQPGGSLRLSCAASGFTFSEYPMGWFRQAPGKEREFVAVVNWNGDSTYYADSVKGRFTISADNSKNTAYLQMNSLKPEDTAVYYCARGSDWYRYWGQGTLVTVSS
# notes: VHH-Fc fusion in assay
# B9: TIGIT-SC58 (Fc fusion)
# VHH: EVQLVESGGGLVQPGGSLRLSCAASGFTLGYYVMGWFRQAPGKEREFVATINWSGTLTSYADSVKGRFTISADNSKNTAYLQMNSLKPEDTAVYYCARWVGPKYYFDYWGQGTLVTVSS
# notes: VHH-Fc fusion in assay
# B10: TIGIT-SC97 (Fc fusion)
# VHH: EVQLVESGGGLVQPGGSLRLSCAASGTAASFNPMGWFRQAPGKEREFVAAISWSGGSTNYADSVKGRFTISADNSKNTAYLQMNSLKPEDTAVYYCVTYSAYDFRNAWGQGTLVTVSS
# notes: VHH-Fc fusion in assay
# B11: TIGIT-SC95 (Fc fusion)
# VHH: EVQLVESGGGLVQPGGSLRLSCAASGPTFSTNVMGWFRQAPGKEREFVSSIHWGGSSTVYADSVKGRFTISADNSKNTAYLQMNSLKPEDTAVYYCVTYSAYDFRNAWGQGTLVTVSS
# notes: VHH-Fc fusion in assay
# B12: TIGIT-SC63 (Fc fusion)
# VHH: EVQLVESGGGLVQPGGSLRLSCAASGRAIGSYGMGWFRQAPGKEREFVATISVSGVYTYYADSVKGRFTISADNSKNTAYLQMNSLKPEDTAVYYCARATPGGVVPWGQGTLVTVSS
# notes: VHH-Fc fusion in assay
# B13: TIGIT-SC47 (Fc fusion)
# VHH: EVQLVESGGGLVQPGGSLRLSCAASGRALNMYVMGWFRQAPGKERELVAAIDWSGGSALYADSVKGRFTISADNSKNTAYLQMNSLKPEDTAVYYCASGDGYSMDYFDPWGQGTLVTVSS
# notes: VHH-Fc fusion in assay
# B14: TIGIT-SC14 (Fc fusion)
# VHH: EVQLVESGGGLVQPGGSLRLSCAASGSISSIHAMGWFRQAPGKEREFVATISRSGVGTFYADSVKGRFTISADNSKNTAYLQMNSLKPEDTAVYYCASSYSSSSGLGDIWGQGTLVTVSS
# notes: VHH-Fc fusion in assay
# B15: TIGIT-SC77 (Fc fusion)
# VHH: EVQLVESGGGLVQPGGSLRLSCAASGGAFSTVAMGWFRQAPGKEREAVASIWRSGDSTYYADSVKGRFTISADNSKNTAYLQMNSLKPEDTAVYYCASSYSSSSGLGDIWGQGTLVTVSS
# notes: VHH-Fc fusion in assay
# B16: TIGIT-SC3 (Fc fusion)
# VHH: EVQLVESGGGLVQPGGSLRLSCAASGTFQRINAMGWFRQAPGKEREFVSTINWSGSNTYYADSVKGRFTISADNSKNTAYLQMNSLKPEDTAVYYCASSYSSSSGLGDIWGQGTLVTVSS
# notes: VHH-Fc fusion in assay
# B17: TIGIT-SC113 (Fc fusion)
# VHH: EVQLVESGGGLVQPGGSLRLSCAASGFTLNDYAMGWFRQAPGKERELVAWIARYDGSTLYADSVKGRFTISADNSKNTAYLQMNSLKPEDTAVYYCTWGDGYNLGAFDIWGQGTLVTVSS
# notes: VHH-Fc fusion in assay
# B18: TIGIT-SC112 (Fc fusion)
# VHH: B17 VHH with F27R, N30R, D31R, A33V, W50A, A52D, R53W, Y54S, D55G, T58A
# notes: VHH-Fc fusion in assay
# B19: TIGIT-SC48 (Fc fusion)
# VHH: EVQLVESGGGLVQPGGSLRLSCAASGRTSDIYGMGWFRQAPGKEREAVASIWRSGGNTYYADSVKGRFTISADNSKNTAYLQMNSLKPEDTAVYYCASSTLDVWGQGTLVTVSS
# notes: VHH-Fc fusion in assay
# B20: TIGIT-SC108 (Fc fusion)
# VHH: EVQLVESGGGLVQPGGSLRLSCAASGNTFSGGFMGWFRQAPGKEREWVASVLRGGYTWYADSVKGRFTISADNSKNTAYLQMNSLKPEDTAVYYCANGGRVWWAFDYWGQGTLVTVSS
# notes: VHH-Fc fusion in assay
# B21: TIGIT-SC197 (Fc fusion)
# VHH: EVQLVESGGGLVQPGGSLRLSCAASGFTFDRSWMGWFRQAPGKEREWVASVLRGGYTWYADSVKGRFTISADNSKNTAYLQMNSLKPEDTAVYYCAREGRTAGWFDPWGQGTLVTVSS
# notes: VHH-Fc fusion in assay
# B22: TIGIT-SC61 (Fc fusion)
# VHH: B20 VHH with A96T, N97R, G99D, R100T, V101A, W102M, W103A, A104T
# notes: VHH-Fc fusion in assay
# B23: TIGIT-SC10 (Fc fusion)
# VHH: B20 VHH with N97S, G98D, G99P, R100W, V101G, W102T, W103R, A104Y, Y107H
# notes: VHH-Fc fusion in assay
# B24: TIGIT-SC21 (Fc fusion)
# VHH: B20 VHH with N97R, R100A, V101G, W102S, W103D, A104W, D106G, Y107P
# notes: VHH-Fc fusion in assay
# B25: TIGIT-SC175 (Fc fusion)
# VHH: EVQLVESGGGLVQPGGSLRLSCAASGNTFSGGFMGWFRQAPGKEREWVASVLRGGYTWYADSVKGRFTISADNSKNTAYLQMNSLKPEDTAVYYCTTDALRFLEWPWWGQGTLVTVSS
# notes: VHH-Fc fusion in assay
# B26: TIGIT-SC134 (Fc fusion)
# VHH: EVQLVESGGGLVQPGGSLRLSCAASGFTLENNMMGWFRQAPGKEREFVAAISASGTLRAYADSVKGRFTISADNSKNTAYLQMNSLKPEDTAVYYCARWYRVNNWSPGYYYYMDVWGQGTLVTVSS
# notes: VHH-Fc fusion in assay
# B27: TIGIT-SC160 (Fc fusion)
# VHH: EVQLVESGGGLVQPGGSLRLSCAASGNTFSGGFMGWFRQAPGKEREWVASVLRGGYTWYADSVKGRFTISADNSKNTAYLQMNSLKPEDTAVYYCAREGRSSSPWFDPWGQGTLVTVSS
# notes: VHH-Fc fusion in assay
# B28: TIGIT-SC114 (Fc fusion)
# VHH: B27 VHH with R97T, E98V, R100G, S101R, S102Q, S103R, P104T, W105L, P108D
# notes: VHH-Fc fusion in assay
# B29: TIGIT-SC6 (Fc fusion)
# VHH: B27 VHH with R97I, E98S, G99P, R100V, S101A, S102W, S103H, P104A, W105K, P108S
# notes: VHH-Fc fusion in assay
# B30: TIGIT-SC155 (Fc fusion)
# VHH: B27 VHH with R97G, E98D, G99Y, S101G, S102F, S103E, P104M, W105A
# notes: VHH-Fc fusion in assay
# B31: TIGIT-SC110 (Fc fusion)
# VHH: B27 VHH with E98D, G99H, R100T, S101A, S102M, S103V, P104A, W105P, P108Y
# notes: VHH-Fc fusion in assay
# B32: TIGIT-SC159 (Fc fusion)
# VHH: B27 VHH with N27F, S30D, G31R, G32S, F33W
# notes: VHH-Fc fusion in assay
# B33: TIGIT-SC158 (Fc fusion)
# VHH: B27 VHH with N27F, G31P, G32S, F33W
# notes: VHH-Fc fusion in assay
# Target: T1, recombinant human TIGIT
# Assay: SPR Carterra, average
# Protocol: Binding affinities of VHH-Fc proteins to recombinant human TIGIT were measured by SPR using a Carterra instrument (Table 10A). […] Average values reported from measurements from 1-2 samples.
Kd [nM],koff [s⁻¹],kon [M⁻¹ s⁻¹],Binder
≤ 0.0105,≤ 1e-05,1.31e+06,B1
≤ 0.222,≤ 1e-05,45000,B2
1.07,0.0012,1.12e+06,B3
0.693,0.000148,213000,B4
0.467,0.000165,246000,B5
2.02,0.000493,244000,B6
≤ 0.0423,≤ 1e-05,342000,B7
0.505,0.000237,469000,B8
≤ 0.0118,≤ 1e-05,860000,B9
0.447,0.000231,942000,B10
2.55,0.00352,1.38e+06,B11
≤ 0.156,≤ 1e-05,64300,B12
≤ 0.204,≤ 1e-05,48900,B13
≤ 0.00513,≤ 1e-05,1.95e+06,B14
2.07,0.000837,1.17e+06,B15
≤ 0.00502,≤ 1e-05,4.71e+06,B16
1.88,0.000483,257000,B17

Kd [nM],koff [s⁻¹],kon [M⁻¹ s⁻¹],Binder
13.2,0.00393,297000,B18
0.713,0.00551,7.72e+06,B19
8.9,0.00181,203000,B20
9.35,0.00156,168000,B21
59.2,0.0037,63000,B22
0.328,0.0002,566000,B23
7.57,0.000578,86600,B24
14.4,0.00124,101000,B25
1.47,8.98e-05,60900,B26
31.6,0.00265,105000,B27
45.2,0.00227,50700,B28
19.4,0.00129,66700,B29
126,0.00647,51300,B30
1.44,0.000765,531000,B31
14.6,0.00144,92000,B32
143,0.00154,18200,B33
